Test results taken from patent US20020086018A1.

Assays:
[1] = target: mBCMA-Fc (soluble murine BCMA-Fc) (mouse); experiment: BIAcore 2000; BCMA-Fc immobilised on CM5, Flag-APRIL as analyte, 1:1 Langmuir model
[2] = target: huBCMA-Fc (soluble human BCMA-Fc receptor fusion protein) (human); experiment: as above

Kd [1]: 0.25 nM | Kd [2]: 0.29 nM
Substance: Soluble murine APRIL-Flag protein (FLAG-tagged soluble mouse G70) (ligand)
